Data published in patent US6465220B1, “Glycosylation using GalNac-T4 transferase” (GlycoZym ApS, priority 1998, dated 2002).

Substrate: C[C@H](NC(=O)[C@H](C)NC(=O)[C@@H](NC(=O)[C@@H](NC(=O)[C@H](CCC(=O)O)NC(=O)[C@@H]1CCCN1C(=O)[C@@H]1CCCN1C(=O)[C@H](C)NC(=O)[C@H](CO)NC(=O)[C@H](CO)NC(=O)[C@H](CO)NC(=O)[C@@H]1CCCN1C(=O)[C@@H]1CCCN1C(=O)[C@H](C)NC(=O)[C@@H]1CCCN1C(=O)[C@@H](NC(=O)[C@@H](NC(=O)[C@H](C)NC(=O)[C@H](CO)NC(=O)[C@@H]1CCCN1C(=O)[C@@H](NC(=O)[C@@H]1CCCN1C(=O)[C@@H]1CCCN1C(=O)[C@@H](N)CS)[C@@H](C)O)[C@@H](C)O)[C@@H](C)O)[C@@H](C)O)[C@@H](C)O)C(=O)O
Experiment: GalNAc-transferase assay with purified recombinant GalNAc-T1
Assay type: biochemical, human
Conditions: other: acceptor substrate; pH 7.5
Protocol: The following examples are provided to illustrate certain preferred embodiments of the invention, and should be considered as illustration and not as limitation. In the examples, GalNAc-transferase assays were performed in 50 μl total reaction mixtures containing 25 mM cacodylate (pH 7.5), 10 mM MnCl2, 0.1-0.25% Triton X-100, 150-200 μM UDP-[^14C]-GalNAc (4,000 cpm/nmole) (Amersham) and 0.06-1 mM acceptor peptides. Peptides were either synthesized or obtained from Carlbiotech (Copenhagen), or Neosystems (Strasbourg), and quality was ascertained by amino acid analysis and mass spectrometry. Peptides Muc-1a, Muc-1b, and TAP24, were derived from the tandem repeat of human MUC1, Gendler et al., J. Biol. Chem. 265:15286 (1990), and Muc2, Muc5AC, and Muc7 from the tandem repeats of MUC2, MUC5AC, and MUC7, respectively. Gum et al., J. Biol. Chem. 264:6480 (1989); Porchet et al., Biochem. Soc. Trans. 23:800 (1995); Bobek et al., J. Biol. Chem. 268:20563 (1993). GalNAc4TAP24 was produced by in vitro glycosylation using GalNAc-T2 as described in Wandall et al., J. Biol. Chem. 272:23503 (1997). Products were quantified by scintillation counting after chromatography on Dowex-1, octadecyl silica cartridges (Bakerbond), or HPLC (PC3.2/3 or mRPC C2/C18 SC2.1/10 Pharmacia, Smart System). Products produced by in vitro glycosylation were in most cases also confirmed by mass spectrometry. […]

B1: GalNAc-T1 (Homo sapiens) (protein)
chain: GLPAGDVLEPVQKPHEGPGEMGKPVVIPKEDQEKMKEMFKINQFNLMASEMIALNRSLPDVRLEGCKTKVYPDNLPTTSVVIVFHNEAWSTLLRTVHSVINRSPRHMIEEIVLVDDASERDFLKRPLESYVKKLKVPVHVIRMEQRSGLIRARLKGAAVSKGQVITFLDAHCECTVGWLEPLLARIKHDRRTVVCPIIDVISDDTFEYMAGSDMTYGGFNWKLNFRWYPVPQREMDRRKGDRTLPVRTPTMAGGLFSIDRDYFQEIGTYDAGMDIWGGENLEISFRIWQCGGTLEIVTCSHVGHVFRKATPYTFPGGTGQIINKNNRRLAEVWMDEFKNFFYIISPGVTKVDYGDISSRVGLRHKLQCKPFSWYLENIYPDSQIPRHYFSLGEIRNVETNQCLDNMARKENEKVGIFNCHGMGGNQVFSYTANKEIRTDDLCLDVSKLNGPVTMLKCHHLKGNQLWEYDPVKLTLQHVNSNQCLDKATEEDSQVPSIRDCNGSRSQQWLLRNVTLPEIF
notes: Control constructs pAcGP67-GalNAc-T1-sol, pAcGP67-GalNAc-T2-sol, pAcGP67-GalNAc-T3-sol, and pAcGP67-O^2-sol were prepared as previously described; made in house; host or cells: insect cells (baculovirus, pAcGP67)
  Km: 40 µM
  Vmax: 0.76 nmol/min/µg
